One variant from IntAct's records for PubMed 12845325 can be followed below.

B1: Integrin alpha-L (Homo sapiens), P20701 (parent)
chain: MKDSCITVMAMALLSGFFFFAPASSYNLDVRGARSFSPPRAGRHFGYRVLQVGNGVIVGAPGEGNSTGSLYQCQSGTGHCLPVTLRGSNYTSKYLGMTLATDPTDGSILACDPGLSRTCDQNTYLSGLCYLFRQNLQGPMLQGRPGFQECIKGNVDLVFLFDGSMSLQPDEFQKILDFMKDVMKKLSNTSYQFAAVQFSTSYKTEFDFSDYVKRKDPDALLKHVKHMLLLTNTFGAINYVATEVFREELGARPDATKVLIIITDGEATDSGNIDAAKDIIRYIIGIGKHFQTKESQETLHKFASKPASEFVKILDTFEKLKDLFTELQKKIYVIEGTSKQDLTSFNMELSSSGISADLSRGHAVVGAVGAKDWAGGFLDLKADLQDDTFIGNEPLTPEVRAGYLGYTVTWLPSRQKTSLLASGAPRYQHMGRVLLFQEPQGGGHWSQVQTIHGTQIGSYFGGELCGVDVDQDGETELLLIGAPLFYGEQRGGRVFIYQRRQLGFEEVSELQGDPGYPLGRFGEAITALTDINGDGLVDVAVGAPLEEQGAVYIFNGRHGGLSPQPSQRIEGTQVLSGIQWFGRSIHGVKDLEGDGLADVAVGAESQMIVLSSRPVVDMVTLMSFSPAEIPVHEVECSYSTSNKMKEGVNITICFQIKSLIPQFQGRLVANLTYTLQLDGHRTRRRGLFPGGRHELRRNIAVTTSMSCTDFSFHFPVCVQDLISPINVSLNFSLWEEEGTPRDQRAQGKDIPPILRPSLHSETWEIPFEKNCGEDKKCEANLRVSFSPARSRALRLTAFASLSVELSLSNLEEDAYWVQLDLHFPPGLSFRKVEMLKPHSQIPVSCEELPEESRLLSRALSCNVSSPIFKAGHSVALQMMFNTLVNSSWGDSVELHANVTCNNEDSDLLEDNSATTIIPILYPINILIQDQEDSTLYVSFTPKGPKIHQVKHMYQVRIQPSIHDHNIPTLEAVVGVPQPPSEGPITHQWSVQMEPPVPCHYEDLERLPDAAEPCLPGALFRCPVVFRQEILVQVIGTLELVGEIEASSMFSLCSSLSISFNSSKHFHLYGSNASLAQVVMKVDVVYEKQMLYLYVLSGIGGLLLLLLIFIVLYKVGFFKRNLKEKMEAGRGVPNGIPAEDSEQLASGQEAGDPGCLKPLHEKDSESGGGKD
partner: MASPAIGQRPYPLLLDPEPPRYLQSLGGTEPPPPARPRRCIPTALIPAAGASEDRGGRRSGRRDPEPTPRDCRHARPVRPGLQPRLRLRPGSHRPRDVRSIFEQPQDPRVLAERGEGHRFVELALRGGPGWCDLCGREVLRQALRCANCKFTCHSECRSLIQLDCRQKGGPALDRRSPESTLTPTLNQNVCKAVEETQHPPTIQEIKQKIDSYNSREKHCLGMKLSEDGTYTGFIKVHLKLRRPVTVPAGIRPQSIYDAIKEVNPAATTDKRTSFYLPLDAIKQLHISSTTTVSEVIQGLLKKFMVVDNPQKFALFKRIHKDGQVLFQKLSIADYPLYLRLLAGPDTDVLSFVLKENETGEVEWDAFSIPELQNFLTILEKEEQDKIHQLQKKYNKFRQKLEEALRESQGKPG

Variants of B1 are the subject of this experiment. The following applies: with rasf5_mouse Rassf5, Q5EBH1.
For the variant K1122A;K1124A, the “effect of a mutation on the interaction” value is recorded as “disrupting interaction”.
